Changes are numbered by the printed parent chain.
Assays:
[1] = molecular target: T1, IL-10Rα.G7.A3.G7 I-OnuI homing endonuclease variant (Artificial (Ophiostoma novo-ulmi I-OnuI …)); assay: flow; yeast surface display substrate titration; stated as sub-nanomolar affinity, exact value only in figure; settings: tags: yeast surface display
T1 chain: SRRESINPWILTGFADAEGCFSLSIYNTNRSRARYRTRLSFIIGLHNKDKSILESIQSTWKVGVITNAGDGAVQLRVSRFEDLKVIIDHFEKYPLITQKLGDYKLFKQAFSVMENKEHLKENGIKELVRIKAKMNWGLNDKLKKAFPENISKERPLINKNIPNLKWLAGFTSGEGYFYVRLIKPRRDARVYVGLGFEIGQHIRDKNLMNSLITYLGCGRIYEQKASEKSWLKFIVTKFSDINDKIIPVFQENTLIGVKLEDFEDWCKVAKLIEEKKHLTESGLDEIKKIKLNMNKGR

[2] = molecular target: T2, IL-10Rα.G7.A3 I-OnuI homing endonuclease variant (Artificial (Ophiostoma novo-ulmi I-OnuI …)); assay: cell_activity; chromosomal mCherry reporter in HEK 293T; variant isolated by display sorting under 50 pM affinity conditions
T2 chain: T1 chain with S55N, Y176H
Experimental: The activity of reprogrammed I-OnuI HEs that target exon 2 of the IL-10Rα gene was measured using a chromosomally integrated fluorescent reporter system (Certo et. al., 2011). Fully reprogrammed I-OnuI HEs that bind and cleave the IL-10Rα target sequence were cloned into mammalian expression plasmids and then individually transfected into a HEK 293T […] cell line that was reprogrammed to contain the IL-10Rα target sequence upstream of an out-of-frame gene encoding the fluorescent mCherry protein. Cleavage of the embedded target site by the HE and the subsequent accumulation of small insertions or deletions, caused by DNA repair via the non-homologous end joining (NHEJ) pathway, results in approximately one out of three repaired loci placing the fluorescent reporter gene back “in-frame”. mCherry fluorescence is therefore a readout of endonuclease activity at the chromosomally embedded target sequence. […] FIG. 3.
A secondary I-OnuI variant library was generated by performing random mutagenesis on one of the reprogrammed I-OnuI HEs that targets the IL-10Rα target site, identified in the initial reporter screen (IL-10Rα.G7, SEQ ID NO: 6). In addition, display-based flow sorting was performed under more stringent affinity conditions (50 pM) to isolate variants with improved binding characteristics. FIG. 3. […]

B1: IL-10Rα exon 2 HE target site (dsDNA)
DNA 1: GGTGGAAAAATTCTGCTTCAAA
DNA 2: TTTGAAGCAGAATTTTTCCACC
- Kd [1]: < 1 nM
- activity [2]: ~2 fold vs IL-10Rα.G7

From patent US20190309274, “IL-10 RECEPTOR ALPHA HOMING ENDONUCLEASE VARIANTS, COMPOSITIONS, AND METHODS OF USE” (bluebird bio, Inc., published 2019)
